These results are taken from publication PMC3750625.

The target of assay [1] is K104C IN 1–105 (Moloney murine leukemia virus). The assay can be described thus: cross-linking; 50 μM IN 1–105 K104C with 1 mM BMOE (8 Å) or BM(PEG)2 (14.7 Å), 50 mM Tris–HCl pH 7.0, 10 μM ZnSO4, on ice 60 min, quenched with 10 mM DTT; SDS-PAGE.
Assay [2] has the same target. As to the kind of experiment: SEC; Superdex S-200 of the BMOE-crosslinked reaction mixture of K104C IN 1–105; data not shown. (Size exclusion chromatography separates by hydrodynamic size, large species first.)
The target of assay [3] is Wild type IN 1–105, the isolated N-terminal domain (NTD) of Moloney murine leukemia virus integrase (Moloney murine leukemia virus) (UniProt P03355). The assay can be described thus: cross-linking; 56 μM IN 1–105 with 100 μM BS3 (0 to 300 μM tested), 50 mM Hepes pH 7.8, 25°C, 35 min, stopped with 50 mM lysine pH 8.0; SDS-PAGE; monomer and dimer bands digested with trypsin or chymotrypsin and read by LC-MS/MS or MALDI-TOF/TOF.

Assay [4] shares this target. The assay can be described thus: SEC; Superdex S-200, nondenaturing, 10 mM Tris pH 7.5, 0.5 M NaCl, 1 mM DTT, 5% glycerol; BS3-crosslinked and unmodified IN 1–105 compared.

For orientation: stoichiometry N means a count of units in the complex or per binding partner. In assay [1], K104C IN 1–105 (domain or fragment) returned a crosslinking extent with BM(PEG)2 of 70%, a crosslinking extent with BMOE of 65% and a stoichiometry N of 2. The stoichiometry N in assay [2] came out at 2.

As for “Wild type IN 1–105, the isolated N-terminal domain (NTD) of Moloney murine leukemia virus integrase (from UniProt P03355 2-106) (domain or fragment)”, in assay [3], the percent of the protein crosslinked was 50% and the stoichiometry N came out at 2. In assay [4], the percent eluting at the position of the dimer turned out to be 95% and the stoichiometry N was found to be 2.
